# Assay results from article PMC3781045.
# Target: T1, rZur (ZurPA, Np20) (Pseudomonas aeruginosa PAO1?) (UniProt Q9HT74)
# T1 sequence: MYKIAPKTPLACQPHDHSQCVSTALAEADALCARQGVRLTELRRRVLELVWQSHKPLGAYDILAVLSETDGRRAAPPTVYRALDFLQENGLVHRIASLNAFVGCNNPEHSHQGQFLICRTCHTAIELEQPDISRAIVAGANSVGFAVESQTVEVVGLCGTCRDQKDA
# Test: EMSA
# Settings: 10 mM Tris-HCl pH 8.0, 40 mM KCl, 10 mM MgCl2, 1 mM DTT, 5% glycerol, 1 uM ZnCl2, 0.5 ug salmon sperm DNA; room temperature 30 min; gel at 4 C
sequence,measurement,value
CGGCGAAGCCAGCAGGAACAGGGCGAAGCAGGCGGACAGCAGGGCAAAGGGACGCAGGGTCACGGCGGCACTCACATGAAAGGTGGTTAGCGGGTAATATAATAACGTCTCTACCCTCGAGCGTCGCAGCCCATGTACAAGATTGCGCCCAAGACCCCGCTGGCCTGCCAGCCCCATGACCACAGCCAGTGCGTCAGCA (double strand) [znuA promoter fragment],binding,binds
